Laboratory results as given in the DeepSol protein solubility set.

assay: soluble on expression in E. coli; label from the status in PepcDB or PDB records

| Sequence | soluble on expression in E. coli |
| --- | --- |
| MPTPFRDLHNKSNASASSYETAWSSSFSSRRSTNNDSKSNLKEIKDEPISNLDESISILENNISMMSVSSPTPAYRTPARVIAREAPMTPGDRLLQKIEKEDERDMLRQLYPEMFDSNQKPRQKPKEVKKALKVESLSDYENDDKENVPPCGKPSKEKEEKKQRTKKIVISSDSEDDGNFENYLKTLREKPTEPAKPERKIPVKKDFVVDDDYISEESSEEESEEEEEDVDDEEYRESSPEVEAKISYSDRKQKKRPTDEEEWFLLSLSEKFSGPIHEDAKVYIKETSLRYKKHRESLLTRLQDILVRRIFSAIPSEKLKVIWNARLRKSAGQCRNHSNGNSTVEMSPVVCTTAERVRDTLIHELCHAATWVVDRLHKEGHGPGWKRWGARCSSVFKSLPFIERCHSYEIEAKFFYVCEKDGCDVEIKRQSKSLDTSRKACGRCFGRFILYRYCRRTNTRIRIEDPKAKPVGPILSNSSKPSPPAPRRIVSEHPEGFKEYSEEHYWKYTAQGLKHSDVMGKLLKEFKELKQL | not soluble |
| MPTPKAFALLGPTAGGKTALALKIAETLPVEIISLDSALVYRDMDIGTAKPSASERAFVPHHLIDIIPPTESYSAARFVEDCTRLVGEISSRGRFALIVGGTMMYFRALTQGLNDLPEADACLRADLDEQKQMYGLDFLYRTLQKVDPETACRLKPNDSQRIGRALEVYYLTGKPMSTHLGSLTSHTLPFDLHTAALIPENRARLHENIALRFHLMLEQGFIGEVENLRRRYPGLTAYSPAIRCVGYRQAWKYLDGKTDFPAFVEKGIAATRQLAKRQLTWLRKTPLDCVADPFSDCTSCTRLIEAAKRFFGA | not soluble |
| MPTPPGQSSSQPLPAKELGYFKKIVKSYEQKQYKAGLKFAQKILTSPGFAEHGETLAMKGLILNCMGKLQEAQDCVRRGLVSDLRSYVCWHVFGLIQKTEKKYDEAIKAYKRALMLEKDNLQILRDLSLLQIHIRDYDGYLSSKYELLQLRQTQRVSWLGYIVAHHLLKEHNLALGIMAEYIKNNTPSGYDFEFSELILYQNLIMREAGLPDVALQKLEENSTHIVDKVAYMETRANLLMDLEQPKQAENVWRALIERNPDSLEYYDMLEKCMGIKDSPKAQLAMLDGLAEKFKRAAAPRRLALYLVEGEELRRRLHEWMIPMLRKGAPSLFASLVPLYKYPQKQAVIESLITEYVKKMDDEGYGNVSLDGKDQECEPPTTALWLYVLASHHFDRCGMTQLALNYIERAIQHTPTVVENYMLKARIYKHAGDYDEAARWMEEAQSLDTADRYINGKCGKYLLRAKRSDEANKMLAKFTREGENAASHLTDMQCMWYELESGRAFRSVNKYGEALRKAHHIDFHFNTWIEDQYDFHTYCLRKMTLCSYIRLLRMCDKLRDADYYYQGAKLAIKIYLRMIDRPDDMNEHSALIKEGMTDQEIKKMKKKLKKQKELQEEEEKKKKDKEQKEEGLQRGPQIDAEALLKTEDPLGEAAKFCHNIHTFGTQKVTGYALCAEVYRRKGKVLLALKCLNEGEDREPTHPLLHVQKVKFLAYWPKCELSGLVKETADELMKCVYGAERDAAELNEKFKIEHQHDFAHRLAYAEAQYSIDSSTNLISWILKSIEDSKVNGRSLKMMIKLKDGIEYGKYGKWSKDDMEKLRKQVHSLFPLSLDFGGGVQHKSASAAPTSAETN | not soluble |
| MPVAEQPYHHGSLRRVLLARAESTLEKDGVDGLSLRQLAREAGVSHAAPSKHFRDRQALLDALAESGFLRLTAALERAVEEAESHARARFAALAGAYVSFALAHRELLALMYGNKHAPGAASQVVEAGHASMDLTVRIVTEAQAAGDIGPGDASRIALVAFATFHGIATLAAGGMLDGAPVDEVVTAASDTFWRGLAQA | soluble |
| MPVGPPVPPKPSTPIMNGERLGEYGVGGHIGNGDVVPERRGILPASLREKINQKKELEGRATPSIEPDLVGRDRYDKASRCFSYVPAKSMQEAFERPRRTSFSRAIEKRENSVENVSQEEVARTEIPQSYQQNDISTPAKWDEQVEDAKQSALLEELARAPSAMQHNYWGNGEVDNVQVVDQAQRAVITPTSTLQRRPKPPARSGSYRTLNDDAYCSDMDELCDPEYYLNYNSNTAPLPPPRRQEQHAGTRSVQLPRKKMNFDAVTDPLDDVLESTKRLGSAYSVGDVRGGQQQQQEQHNASNDFNFSNTLNNTPTDYRQHYRNRNCQSVTTPRNHHFSTPSREQEADAADTWLSGKLKKVRSKRDIDPDIVRRRTQEKMLLEELKDSAANNDENQHNLPNGHARGAGLQNIDPLAEFRREEERLRNTRSPYGEERWRGRMRGKPPTPPPRESSASPVNSLPRGTPAHHMDRQRHNQSVPLPMHHRQFDEDFDVNSLFNFSHDPRQQSTTLERGGRSLSRGARIQDAYYASQQDLSANNRFNSGQERVAAAIYRAETAHRDMYASGTINRAETPGRYFPENSAVLERSSTPSFPVSRATPLPFHPLLYNNGERGGSGHAAGGGGGGHNGYSTMNNRSASPRLFGGSSTLSRRSSVNSVDILSEILILQTSYLSCSYILLYLWNFYSLAFASNFKTMSDTATTSTTVVIHLKRSNHDDASASATTAQLQQRSRYCDVSLASSEESSDLSDAEEKDDLIRRTITSSSKDTMEEGDDDDEEEFDDVVMEEDVGGGTDANEQFSRVIQRQISGAGGGILKKSNGKDTSEIIHHHPLFVKDTSKYWYKPTISREQAINMLRDKPPGTFVVRDSNSFPGAFGLALKVSTPPPGVNPGDGSELVRHFLIEPSPKGVKLKGCNNEPVFGSLSALVYQHSITALALPTKLVLPDFDPAATPEHLSATQALLEQGAACNVVYVGSVDVESLTGNECVKRSIATCSQRAINGDSRAVSVHFKVSSQGVTLTDNTRKVFFRRHFNVQSVIFAGMDPIERRFENTRALGFHDGCIAQARLFAFVARIPSSSENACHVFAELEPEQPGSAVVNFINKVMLAQKNRS | not soluble |
| MPVKVLNFPSVVLQHFLVGLTSTELFELTQCSLKSKDRVRPYEKSNKTFRMAVDFQRNWVDIRGVYRFYVKELVDGKLPKTYGKMGVREFGDKKVQVELDENEKTINIFWPTTEKEDRTFAVMKVAEHFIYTLGLGEFESVTLGQENHAGRIIDWANEKNLNIANFTIGNVDKEHDDVDKVAEKLYSASFFKKVSANFKCLINPTEAFKPNEFLPGIPKNTNMIFFHGAHWMTIDTLKDFTACSVILYDCKFTNKDINEFIKLWKNKEFERIFYISINVPQGSGFKLTEVIAGLDGFGEIENDATTMKREDGKEIEVSVLDEKKQIRIVVD | not soluble |
| MPVNIPPLLPEQLLPIPGLSLGTAEASIKRPGRKDILVITLAENTRVAGVFTRNRFCAAPVTVARSHLTGSLPIRALVINTGNANAGTGQSGIDHAHATCASLARLIGCQTQQVLPFSTGVIMEPLPVEKIITHLPQALANLAPDNWFAAAQAIMTTDIVPKGVSRQIQINGTTVTITGIAKGSGMIHPNMATMLGYIATDAAVTQPLLDDLVRYATDRSFNCVTVDGDTSTNDALILMATGQAGNTPITVSTDPAFISLQAAITEVAALLAQMIVRDGEGATKFITVQVESGKTREECTKVAYAIAHSPLIKTACFASDPNLGRILAAIGYAGIEDLDVNLVQLYLGNILVAEHGGRAASYREEDGQRIMQAPEITIQVKLNRGNASTTVWTCDLSYDYVKINADYRSLEHHHHHH | not soluble |
| MPVVKVRENEPFDVALRRFKRSCEKAGILSEVRRREHYEKPTTVRKRAKAAAQKRHAKKLSRENARRVRLYLEHHHHHH | not soluble |
| MQAAVTVTPARLPELLLGLATVRPVFLWGAPGIGKSSLVRNFADSLGLECVSLLGTQLAPEDLIGVPQIRDGRSVFCPPESIARDEPYCLFLDELNAATPDVQKAFYSLILDRRIGNYELPKGSLVIGAGNRATDNALARPIASALVNRLTHVHLDASAKDWLVWAGENGIHPWITDHLTDRPDHLWSKPPKTEEPFSTPRSWHMLSDALHSFGQDLDEETLKVLAHGTLTPAHATAFCGYVKIVRSRFGIEAILKGEARWPSRIEDRDLLYYLAESFRGRLVKELPASKEHMSANGRQTAYRAKSLLVQLAEISVEVAQSVIASDADGNPLLPAWFLVEAARDMPRLVEARRLEHHHHHH | not soluble |
| MQAGARLARQDNAMADAPAPAPKRARAGRPPTLAAPRERILEEAARLFARSGYENSSVADLAAAIGVSKAALYHYFPTKQDIYDAIILETLAGLLQAVTREVERQREACERLRAFMVGHARYFARHHEQFVTMLIGYSGMALPERADAAQLRDRYEQLLRDLLEQGMATGTLRRLDVAATGRAVLSMLNWMVRWYKPGQGDSAEQIADGYYDLLFNGLRI | soluble |
